Laboratory results from the Human Domainome abundance scans (Beltran et al. 2025).
± gives the uncertainty stated by the source.

B1: POU domain, class 2, transcription factor 2, residues 200 to 269; numbered along this chain, P09086 (parent)
chain: LEELEQFARTFKQRRIKLGFTQGDVGLAMGKLYGNDFSQTTISRFEALNLSFKNMCKLKPLLEKWLNDAE

Variants of: B1
Assay: abundance fitness (aPCA) (normalised: wild type 0, dead -1); higher = more abundant; growth selection in yeast, the domain comes from the species named
Details: Homo sapiens

Variant	abundance fitness
L27P	-0.39 ± 0.051
L27H	-0.043 ± 0.13
L27E	-0.059 ± 0.047
L27M	-0.033 ± 0.041
L27T	-0.092 ± 0.05
L27Y	0.026 ± 0.12
L27C	-0.057 ± 0.068
Q39L	-0.046 ± 0.037
Q39H	-0.11 ± 0.088
Q39K	-0.029 ± 0.056
Q39P	0.035 ± 0.048
Q39S	0.005 ± 0.047
N35H	-0.114 ± 0.12
N35M	-0.049 ± 0.053
T10M	-0.011 ± 0.019
T10K	-0.024 ± 0.023
T10E	0.012 ± 0.025
T10V	-0.04 ± 0.018
T10D	0.022 ± 0.029
T10S	-0.016 ± 0.017
F52R	0.032 ± 0.036
F52I	-0.028 ± 0.063
F52Q	-0.087 ± 0.084
F52P	-0.115 ± 0.099

Variant	abundance fitness
F52W	-0.024 ± 0.055
L48I	-0.029 ± 0.09
L48D	-0.27 ± 0.092
L48V	0.018 ± 0.045
T41G	-0.193 ± 0.039
T41L	-0.041 ± 0.038
T41Q	-0.061 ± 0.047
T41D	0.029 ± 0.14
T41F	-0.114 ± 0.097
F45G	-1.05 ± 0.15
F45D	-0.916 ± 0.26
F45W	-0.205 ± 0.052
R14A	-0.064 ± 0.048
R14Q	-0.084 ± 0.069
R14M	-0.061 ± 0.073
R14V	-0.128 ± 0.038
L61G	-0.093 ± 0.032
L61R	-0.038 ± 0.031
L61A	-0.043 ± 0.041
L61K	0.032 ± 0.056
L61H	-0.064 ± 0.079
G30V	-0.052 ± 0.035
G30R	-0.063 ± 0.043
G30K	-0.071 ± 0.078

Variant	abundance fitness
G30T	0.009 ± 0.074
G30L	-0.044 ± 0.049
G30Q	0.107 ± 0.14
G30P	-0.223 ± 0.085
Q6T	0.003 ± 0.052
Q6F	-0.086 ± 0.15
Q6D	0.001 ± 0.18
Q6E	-0.045 ± 0.047
Q6W	-0.086 ± 0.056
T40N	-0.107 ± 0.083
T40K	0.232 ± 0.2
T40F	-0.041 ± 0.096
T40M	-0.058 ± 0.085
K12E	-0.147 ± 0.22
K12R	-0.142 ± 0.18
K12H	-0.127 ± 0.49
K12A	-0.254 ± 0.38
I16R	-0.059 ± 0.027
I16L	-0.042 ± 0.038
I16Q	-0.013 ± 0.061
I16D	-0.133 ± 0.061
F7Q	-0.676 ± 0.091
F7Y	-0.192 ± 0.075
F7M	-0.226 ± 0.075

Variant	abundance fitness
F7R	-0.96 ± 0.072
F7L	-0.286 ± 0.044
Q22L	-0.025 ± 0.042
Q22I	-0.12 ± 0.16
Q22K	-0.042 ± 0.07
Q22H	-0.062 ± 0.11
Q22A	0.004 ± 0.05
Q22F	-0.097 ± 0.1
A8G	-0.28 ± 0.034
A8I	-0.082 ± 0.031
A8Y	-0.955 ± 0.23
A8D	-0.883 ± 0.19
A8P	-0.506 ± 0.11
A8L	-0.371 ± 0.033
A8F	-0.708 ± 0.15
A8T	-0.065 ± 0.054
A8V	-0.057 ± 0.029
W65C	-0.243 ± 0.06
W65Y	-0.128 ± 0.093
W65R	-0.628 ± 0.066
W65T	-0.362 ± 0.061
M55Y	-0.135 ± 0.071
E46C	-1.06 ± 0.21
E46S	-1.05 ± 0.1

Variant	abundance fitness
E46D	-0.942 ± 0.14
K57Y	-0.089 ± 0.11
K57E	-0.05 ± 0.062
K57L	-0.08 ± 0.041
K57A	-0.057 ± 0.042
L1G	0.01 ± 0.078
L1C	-0.496 ± 0.34
L1W	-0.051 ± 0.087
L1R	-0.169 ± 0.086
L1F	-0.028 ± 0.13
L1M	-0.081 ± 0.094
A28P	-0.616 ± 0.068
A28F	-0.032 ± 0.059
A28E	0.06 ± 0.062
G34D	-0.065 ± 0.088
G34L	-0.208 ± 0.032
G34S	-0.062 ± 0.039
G34V	-0.168 ± 0.046
G34Y	-0.06 ± 0.11
G34M	-0.208 ± 0.089
L4H	0.052 ± 0.18
L4G	-0.655 ± 0.058
L4F	-0.055 ± 0.067
L4W	-0.201 ± 0.04

Variant	abundance fitness
L4Y	-0.408 ± 0.19
L4Q	-0.233 ± 0.07
L4K	-0.797 ± 0.12
L4A	-0.181 ± 0.045
L4N	-0.763 ± 0.38
L4R	-0.485 ± 0.038
A47D	0.158 ± 0.083
A47Y	-0.26 ± 0.091
K64C	-0.117 ± 0.095
K64N	-0.232 ± 0.11
K64V	-0.048 ± 0.054
K64Q	0.008 ± 0.052
K64H	0.041 ± 0.11
K64S	-0.084 ± 0.073
K64E	-0.016 ± 0.064
S51K	-0.019 ± 0.052
S51W	-0.907 ± 0.091
S51P	0.006 ± 0.034
S51L	-0.785 ± 0.053
S51R	-0.102 ± 0.035
S51E	0.025 ± 0.05
E5F	-0.214 ± 0.2
E5I	-0.293 ± 0.098
E5A	0.005 ± 0.042

Variant	abundance fitness
E5V	-0.052 ± 0.036
E5C	-0.07 ± 0.08
E5H	0.074 ± 0.2
E5Q	-0.057 ± 0.071
F37T	-0.175 ± 0.065
F37Q	-0.061 ± 0.073
F37W	-0.012 ± 0.049
F37I	0.088 ± 0.068
F37Y	-0.048 ± 0.092
R9Q	-0.143 ± 0.058
K59V	-0.031 ± 0.036
K59G	-0.079 ± 0.038
K59E	-0.293 ± 0.047
K59T	-0.167 ± 0.049
K59R	-0.078 ± 0.047
G26C	-0.105 ± 0.065
G26M	-0.131 ± 0.045
G26K	-0.113 ± 0.041
G26R	-0.165 ± 0.035
G26Q	0.042 ± 0.071
E2K	-0.02 ± 0.16
E2Q	-0.171 ± 0.17
E2D	0.054 ± 0.097
E2N	0.259 ± 0.3

Variant	abundance fitness
E2V	-0.062 ± 0.046
E2P	-0.689 ± 0.19
G23V	-0.029 ± 0.036
G23K	0.029 ± 0.064
G23P	-0.136 ± 0.061
G23W	-0.076 ± 0.043
G23R	-0.004 ± 0.035
G23A	0.04 ± 0.034
G23Q	-0.07 ± 0.068
G23F	-0.01 ± 0.14
K17G	-0.027 ± 0.035
K17L	-0.006 ± 0.036
K17M	0.001 ± 0.07
K17H	-0.2 ± 0.086
K17E	-0.082 ± 0.056
K17W	-0.129 ± 0.052
T21E	-0.165 ± 0.043
T21L	-0.323 ± 0.041
T21G	-0.135 ± 0.032
D36G	-0.06 ± 0.031
D36L	-0.049 ± 0.036
D36Q	-0.047 ± 0.08
K31I	-0.136 ± 0.062
K31E	-0.064 ± 0.055

Variant	abundance fitness
K31F	-0.336 ± 0.11
K31N	-0.166 ± 0.083
K31T	-0.036 ± 0.072
R44H	-0.168 ± 0.095
R44G	0.008 ± 0.029
R44V	-0.523 ± 0.045
R44A	0.04 ± 0.052
R44P	-0.936 ± 0.12
R44S	0.065 ± 0.086
L58A	-0.002 ± 0.04
L58G	-0.619 ± 0.042
L58W	-0.007 ± 0.038
L58V	-0.005 ± 0.037
L58M	-0.011 ± 0.067
C56Y	-0.196 ± 0.068
C56S	-0.029 ± 0.042
C56L	0.007 ± 0.03
C56W	-0.046 ± 0.04
C56E	0.002 ± 0.045
C56R	0.014 ± 0.029
R15P	-1.16 ± 0.14
R15T	-1.01 ± 0.11
R15G	-1.01 ± 0.092
L66T	-0.355 ± 0.081

Variant	abundance fitness
L66W	-0.232 ± 0.058
L66Q	-0.358 ± 0.076
L66A	0.001 ± 0.056
L66I	0.03 ± 0.11
L66S	-0.238 ± 0.043
L66H	-0.526 ± 0.36
L66V	0.007 ± 0.045
V25W	-0.692 ± 0.065
V25G	-1.05 ± 0.088
V25C	-0.229 ± 0.091
L62D	-0.999 ± 0.1
L62C	-0.096 ± 0.1
L62K	-0.896 ± 0.15
L62V	-0.043 ± 0.049
L62E	-0.974 ± 0.13
L62A	-0.166 ± 0.04
M29Q	-0.463 ± 0.072
M29Y	-0.611 ± 0.14
M29K	-0.95 ± 0.16
M29I	-0.211 ± 0.08
D68H	-0.205 ± 0.14
D68F	0.085 ± 0.11
E3T	-0.159 ± 0.061
E3C	-0.187 ± 0.065

Variant	abundance fitness
E70W	-0.073 ± 0.065
E70D	0.054 ± 0.054
E70N	-0.066 ± 0.16
E70V	-0.035 ± 0.042
E70G	-0.072 ± 0.069
E70F	-0.2 ± 0.19
E70C	-0.092 ± 0.12
L50E	0.008 ± 0.074
L50H	-0.089 ± 0.056
L50C	-0.078 ± 0.026
I42A	-0.609 ± 0.086
I42K	-0.979 ± 0.15
I42P	-0.857 ± 0.18
I42L	-0.073 ± 0.038
I42C	-0.375 ± 0.16
I42Q	-0.559 ± 0.11
N54M	0.103 ± 0.067
N54Q	0.11 ± 0.15
N54P	-0.264 ± 0.059
N54Y	0.09 ± 0.14
N54A	-0.046 ± 0.044
N54S	0.042 ± 0.043
N49K	-0.007 ± 0.047
N49W	-0.309 ± 0.044

Variant	abundance fitness
N49S	-0.005 ± 0.027
N49F	-0.219 ± 0.065
N49D	0.049 ± 0.063
S38Q	-0.054 ± 0.068
S38W	-0.157 ± 0.04
S38P	-0.065 ± 0.044
G19V	-0.986 ± 0.087
G19M	-0.268 ± 0.075
G19D	-0.143 ± 0.11
L32I	-0.049 ± 0.087
L32M	-0.021 ± 0.072
L32K	0.01 ± 0.077
L32G	-0.08 ± 0.034
L32P	-0.209 ± 0.077
P60M	-0.207 ± 0.076
P60T	-0.06 ± 0.052
P60R	-0.102 ± 0.035
P60S	-0.069 ± 0.057
D24C	-0.172 ± 0.13
D24R	-0.177 ± 0.033
D24V	-0.169 ± 0.048
D24M	-0.125 ± 0.078
D24I	-0.792 ± 0.28
D24A	-0.07 ± 0.048

Variant	abundance fitness
L18G	-0.159 ± 0.024
L18H	-0.049 ± 0.12
L18Q	-0.053 ± 0.084
L18I	-0.099 ± 0.061
L18S	-0.193 ± 0.051
L18W	-0.216 ± 0.04
L18N	-0.044 ± 0.094
L18E	-0.253 ± 0.061
L18K	-0.177 ± 0.045
L18R	-0.233 ± 0.035
L18Y	-0.16 ± 0.067
Q13W	-0.172 ± 0.038
Q13L	-0.033 ± 0.031
Q13C	-0.115 ± 0.062
Q13H	-0.085 ± 0.077
Q13N	-0.07 ± 0.065
Q13V	-0.023 ± 0.036
F11V	-0.239 ± 0.033
F11P	-1.03 ± 0.15
F11W	-0.209 ± 0.04
F11Y	-0.627 ± 0.17
F11A	-0.151 ± 0.033
Y33L	-0.024 ± 0.036
Y33A	-0.057 ± 0.032

Variant	abundance fitness
Y33I	-0.076 ± 0.09
Y33E	-0.074 ± 0.062
Y33R	-0.17 ± 0.035
Y33F	-0.062 ± 0.087
Y33K	-0.062 ± 0.048
K53V	-0.014 ± 0.035
K53T	0.064 ± 0.059
K53M	-0.055 ± 0.054
K53A	0.004 ± 0.047
K53W	-0.079 ± 0.058
S43L	-0.07 ± 0.036
S43Q	0.095 ± 0.11
S43K	0.062 ± 0.085
S43C	-0.149 ± 0.083
S43P	-0.002 ± 0.046
A69R	-0.007 ± 0.049
A69D	-0.233 ± 0.088
A69K	-0.105 ± 0.063
F20K	0.005 ± 0.063
F20D	-0.899 ± 0.16
F20T	-0.317 ± 0.061
F20Q	-0.081 ± 0.058
